Source: the nanobody polyreactivity screen of Harvey et al. (2022)

Experiment: yeast display, Sf9 membrane polyspecificity reagent, FACS + sequencing; frameworks hold sequencing errors
Outline: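 Galactose induction of a Saccharomyces cerevisiae BJ5465 synthetic nanobody display library ran 36–48 hours. The cells were then stained for 1 hour at 4 °C with 10% biotinylated, detergent-solubilized Sf9 membrane reagent, pulled down on streptavidin microbeads and FACS-sorted into low and high (top ~1%) gates on expression and reagent-binding fluorescence. Labels for polyreactivity follow the gate of origin.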

Sequence	polyreactivity (PSR sort gate)
QVQLVESGGGLVQAGGSLRLSCAASGFIFFQYAMGWYRQAPGKERELVAAITARSGSTYYADSVKGRFTISRDNAKNTVYLQMNSLKPEDTAVYYCAARPRYYRWGPLDYWGQGTQVTVSS	high polyreactivity
QGQLVESGGGLVQAGGSLRLSCAASGGTFRAYVMGWSRQAPGKERELVADISRSGTRTYYADSVKGRFTISRDNAKNTVYLQMNSLKPEDTAVYYCAAAAKSWLFEYWGQGTQVTVSS	high polyreactivity
QVQLVESGGGLVQAGGSLRLSCAASGGIFWYYTRGWYRQAPGKERELVATISSGGRTYYADSVKGRFTISRDNAKNTVYLQMNSLKPEDTAVYYCAKSYRRRQGYSYWGQGTQVTVSS	high polyreactivity
QVQLVESGGGLVQAGGSLRLSCAASGGIFARNVMGWYRQAPGKERELVAAISGSGGSTYYADSVKGRFTISRDNAKKTVYLQMNSLKPEDTAVYYCAARTPGVSVYKDGYWGQGTQVTVSS	low polyreactivity
QVQLVESGGGLVQAGGSLRLSCAASGFTFGAYAMGWYRQAPGKERELVAAITGSGGNTFYADSVKGRFTISRDNAKNSVYLEMNCLKTEDTAVYYCAKTWYPWSRYGYYRRYDSWGQGTQVTVSS	low polyreactivity
QVQLVESGGGLVQAGGSLRLSCAASGITLYRYAMGWYRQAPGKERELVADISSGGGTTYYADSVKGRFTISRDNAKNTVYLQMNSLKPEDTAVYYCAADYGFRYPLYDYWGQGTQVTVSS	low polyreactivity
QVQLVESGGGLVKAGGSLRLSCAASGSTSPFNAMGWYRQAPGKERELVAAITSGGSTHYADSVKGRFTISRDNAKNTVYLPMNRLKPEDSAVYYCAAEPVAYYGSSYGYWGQGTQVNVSS	low polyreactivity
QDQLVESGGGLVQEGGSLRLICGASGFIFPTNAMGWYRPAPGKERELVAAISRSGGTTNYADSVKGRFTISRDNAKNTVYLQRNSLKPEDTAVYYCNRGWATWHGPDDYWGQGTQVTVSS	high polyreactivity
QVQLVESGGRLVQAGGSLRLSCAASGITFDLYDMGWYRQAPGKVRELVAAITDADSTYYADSVKGRFTMSRDNEKNTVKLQMTSLIPEDTAVYYCAADFFYSVYSGHYDYWGQGTQVTVSS	low polyreactivity
QVHLVESGGGLVQAGGSLRLSCAASGSILDEYAMGWYRQPPGKESELVAAISSSGTSTYYADSVKRRFTISRDNAKNTDYLQMNSLKPEDTAVYDCARVKQHRSHRVPGDDYWGQGTQVTVSS	low polyreactivity
QVQLVESGGGLVQAGGSLRLSCAASGRTFKFYAMGWDRQAPGSDRELVAAISSSGGRTYYADSVKGRFTISRDNAKNTVYLQMNSLKPEDTAVYYCAAVPGSKFVQKDDYWGQGTQVTVSS	low polyreactivity
QVQLVESGGGLVQAGGSLRLSCAASGSTFVFYTMGWYRPAPGKERELVAGISRNGGSTYYADSVKGRFTISRDNAKNTVYLQMNSLKTEDSAVYYCAALTWSRAYYSRKFYYWGQGTQVTVSS	high polyreactivity
QVQLVESGGGLVQAGGSLRLSCAASGSIFYQNAMGWYRQAPGKERELVAAITSDGSTYYADSVKGRFTISRDNAKNTVYLQMNSLKPEDNAVYYCAAEYYVHRYDYWGQGTQVTVSS	low polyreactivity
QVQLVESGGGLVQAGGSLRLSCAASGFTFFYNAMGWYRQAPGKEREFVAAISGRGGTTYYADSVKGRFTISRDNAKNTVYLQMNSLKPEDTAVYYCNAGSSPIRQYYGQVWKKGGYWGQGTQVTVSS	high polyreactivity
QVQLVESGGGLVQAGGSLRLSCAASGRTFCSNAMGWYRQAPGKERELVARISWSGGSTYYADSVKGRFTISRDNAKNTVYLQMNSLKPEVTAVYYCAKYYPGRSAFSEGTYWGQGTQVTVSS	low polyreactivity
QFQHVESGGGLVQAGGSLRLSCAASGNTFYVYAMGWYRQAPGKERELVAGITTSGGSTYYADSVKGRFTISRDNAKNTVYLQMNSLKTEDTAVYYCATDISTSYYYKYSSFYQYDSWGQGTQVTVSS	low polyreactivity
QVQLVESGGGLVQAGGSLRLSCAASGSIFLDYAMGWYRQAPGKERELVAGITISGGSTYYADSVKGRFTISRDNAKNTVYLQMNRLKPEDTAVYYCSKVAPRSSSSQEYYYWGQGTQVTVSS	low polyreactivity
QVQLVESGGGLVQAGGSLRLSCAASGRILAIYAKGWYRQAPGKERELVAGITYSAGSTYYADSVKGRFTISRDNAKNTVYLQMNSLKPEDTAVYYCAALEYNSHRYGYDYWGQGTQVTVSS	low polyreactivity
QVQLVESGGGLVQAGGSLRLSCAASGLIFTNYAMGWYRQAPGKERELVAGISTRGTSTYYADSVKGRFTISRDNAKNTVYLQMNSLKPEDTAVYYCAAVHRVVRAYDYWGQGTQVTVSS	high polyreactivity
QVQLVESGGGLVQAGGSLRLSCAASGFIFRRYSMGRYRQAPAKERELVAASTSGGGRTYYADSVKGRFTISRDNAKNTVYLQMNSLKPEDTAVYYCARVQRGDYDYWGQGTQVTVSS	high polyreactivity

Sequence	polyreactivity (PSR sort gate)
QVQLVESGGGLVQAGGSLRLSCAASGSTFFDYAMGWYRQAPGKERELVAAISRSGDTNYADSVKGRFTMSRDNAKNTVYLHMNSLKPEDTAVYYCAKYWAYRRHWVGFYYWGQGTLVTVSS	low polyreactivity
QVQLVESGGGLVQAGGSLRLSCAASGSIFVYYAMGWYRQAPGKERELVAAITWSSGRTYYADSVKGRFTISRDNAKNTVYLQMNSLKPEDTAVYYWNVLTRYYLGYDYWGQGTQVTVSS	high polyreactivity
QVQLVESGGGLVQAGGSLRLSCAASGRTFYRYAMGWYRQAPGKERELVAAIRWSGGSTYYADSVKGRFTISRDNAKNTVYLQMNSLKPEDTAVYYCAARAIQLVDGRYKVRMDYWGQGTQVTVSS	low polyreactivity
QVQLEESGGRLVQAGGSLRLTCAASGRTYARYAIGWNRQAPGKERQLVAAISRGGTTNYADSVKGRFTISRDNAKNTVYLQMNSLKPEDTAVYYCNRDFHLIHLSSARLDYWGQGTQVTVSS	low polyreactivity
QVQLVESGGGLVQAGGSLRLSCAASGSTSVINAMGGNRQAPGKERELVAGISGSGGSTYYADSVKGRFTISRDNAKNTVYLLMNSLKPEDTAVYYCAKRFYRPVPGGYYWGQGTQVTVSS	high polyreactivity
QVQLVESGGGIVQAGGSLRLTCAASGITFYKYDMGWYRQAPGKDRELVAAISFRGGNTNYADSVKGRFTISRDNAKNTVYLQMNILKPEDTAVYYCAAYSYTWFYEYGYWGQGTQVTVSS	high polyreactivity
QVQLVESGGGLVQAGGSLRLSCAASGFTFVEYAMGWYRQATGKERELVAAITSGGSTYYADSVKGRFTISRDNAKNTVYLQMNSLKPADTAVYYCNAEGVVVAISHFSVQDGYWGQGTQVTVSS	low polyreactivity
QVQLVESGGGLVQAGGRLRLSCAASGSIFRFYAMGWYRQAPGKERELVASISSGGSTYYADSVKGRFTISRDNAKNTVYLKLNSLKAEDTAVYYCAHGFAQYGVDLDPGDYDYWGQGTQVTVSS	low polyreactivity
QVQLVESGGGLVQAGGSLRLSCAASGRIFYSYAMGWYRQAPGKERELVATISRRGGSTYYADSVKGRFTISRDNAKITVYLQMNSLKPEDTAVYYCNKGIPTRSVRSYDYWGQGTQVTVSS	high polyreactivity
QVQLVESGGGLVQAGGSLRLICAASGLTFHRYAMGWYRQAPGKERELVAAINYSGGRTYYADSVKGRFTISRDNAKNTVYLQMNSLKPEDTAVYYCAAPRASGYYWGQGTQVTVSS	high polyreactivity
QVQLVESGGGLVQAGGSLSLSCAASGFIFGGYAMGWYRQAPGKERELVAAITWSGGNTYYADSVKGRFTISRDNAKNTVYLQMNSLKPEATAVYYCAADYWTKYVYWGQGTQVTVSS	low polyreactivity
QVQLVESGGGLVQAGGSLRLSCAASGSIVAGYAMGWYRQAPGKEREMVAAISDSGGNTYYADSVKGRFTISRDNAKNTVYLQMNSLKPEDTAVYYCAADLGYGPLRELEYWGQGTQVTVSS	low polyreactivity
QVQLVESGGGLVQAGGSLRLSCAASGRTFNSYAMGWSRQAPGKDRELVAAISRTGASTYYADSVKGRFTISRDNAQNTVYLQMHSLKPEDTAVYYCAADANSGDGYYWGHGTQVTVSS	high polyreactivity
QVQLVESGGGLVQAGGSLRLSCAASGSTFAYYAMGWYRQAPGKERELVAAISWSGGSTYYADSVKGRFTISRDNAKNTVYLQLNSLKPEDTAVYYCAAGVPSTFQYSYWDYNYWGQGTQVTVSS	low polyreactivity
QVQLVESGGGLVQAGGSLRLSCAASGRIFERYAMGWYRQAPGKERELVAGISISGGGTYYADSVKGRFTISRDNAKNTVYLEMNSLKPEDTAVYYCAATFPREDYGYWGQGTQVTVSS	low polyreactivity
QVQLLESGGGLVQAGGSLRISCAASGFIFDYYMGWYRQAPGKERELVARISYTGGSTYYADSVKGRFTISRDNAKNTVYLQMNSLKPEDTAVYYCATRGAEAERFASYEFDYWGQGTQVTVSS	low polyreactivity
QVQLVESGGRLVQAGGSLRLSCAASGRNFGLYAMGWYRQAPGKEREFVAAIRWIGGGTYYADSVKGRFTISRDNAKNTVYLQMNSLKPEDTAVYYCAARLSVAWVGYDYWGQGTQVTVSS	low polyreactivity
QVQLVESGGGLVQAGGSLRLSCAASGFTFNRYAMGWYRQAPGKERELVAAISWSGTSTYYADSVKGRFTISRDNAKNTVYLQMNSLKQEDTAVYYCAARVKGQWNTYDYWGQGTQVTVTS	high polyreactivity
QVQLVESGGGLVQAGGSLRLSCAASGSTFLDYDMGWYRQAPGKERELVATINSVGSTYYADSVKGRFTISRDNAKNTVYLQMKSLKPEDTAVYYCAASQEPGWYPDVWWEYDYWGQGTQVTVSS	low polyreactivity
QVQLVESGGGLVQAGGSLRLSCAASGNIFYLNTMGWYRQAPGKERELVASISRDGGRTYYADSVKGRFTISRDNAKNTVYLQMNSLKPEDTAVYYCAAVVLHHFTEVGQHYYWGQGTQVTVSS	low polyreactivity
